# Experimental data as given in PMC9568614.
# Several values for one entry are separate records, joined by “and”; a condition that tells them apart may be missing. Equal entries are not always repeated.
# Legend:
# [1] = target: recombinant human FcRn (FcRn alpha-chain with C-terminal BirA 10x-Histidine tag, with beta-2-microglobulin) (human) (UniProt P55899); assay: SPR
# [2] = target: recombinant human FcRn (FcRn alpha-chain with C-terminal BirA 10x-Histidine tag, with beta-2-microglobulin) (human) (UniProt P55899); assay: SPR; pH 7.4
# [3] = target: FcRn coupled to the FcRn Affinity Column (Roche) (UniProt P55899); assay: FcRn-affinity chromatography; FcRn Affinity Column (Roche); antibody or fragment injected at pH 5.5 (20 mM MES, 150 mM NaCl), pH gradient to pH 8.8 (20 mM Tris-HCl, 150 mM NaCl); elution pH read
# Fc-MST-HN (human) [4] = assay: SPR; IBIS MX96; IgG or Fc randomly coupled on a SensEye G Easy2Spot array at four spotting concentrations (60, 30, 15, 7.5 nM); monomeric human FcRn injected 0.49-1000 nM in PBS, 0.075% Tween 80, pH 6.0; equilibrium analysis, Langmuir 1:1 model; one KD for each spot (with its RU), later interpolated to Rmax = 700 RU
# Fc-WT (human) = assay: as above
# [5] = target: anti-HEL IgG1-MST-HN (human); assay: as above
# anti-HEL IgG1-WT (human) = assay: as above
# Fc-MST-HN (human) [6] = assay: SPR; IBIS MX96; IgG or Fc randomly coupled on a SensEye G Easy2Spot array at four spotting concentrations (60, 30, 15, 7.5 nM); monomeric human FcRn injected 0.49-1000 nM in PBS, 0.075% Tween 80, pH 7.4; equilibrium analysis, Langmuir 1:1 model; one KD for each spot (with its RU), later interpolated to Rmax = 700 RU
# Fc-MST (human) = assay: ITC; 37 °C, PEAQ-ITC; as drawn in the figure FcRn:b2M titrated into the Fc (reverse setup: 6 uM in the cell, 165 uM in the syringe); fit A + B + B with 2 symmetric sites, macroscopic K (Sedphat); buffer and pH not stated; four runs for Fc-MST-HN (values averaged), one for Fc-YTE
# [7] = target: recombinant human FcRn (FcRn alpha-chain with C-terminal BirA 10x-Histidine tag, with beta-2-microglobulin) (human) (UniProt P55899); assay: SPR; pH 6.0
# [8] = target: Fc-MST-HN (IgG1 Fc fragment with M252Y, S254T, T256E, H433K, N434F) (human); assay: crystal structure; Fc-MST-HN with EndoH- and thrombin-treated FcRn:beta2M, complex isolated by preparative SEC; crystals from 0.1 M sodium cacodylate pH 7.0, 293 K
substance,measurement,setting,value
anti-HEL IgG1-MST-HN (full-size IgG1) (from UniProt P01857),Kd,[1],39 nM
same,Kd,[2],899 nM
Fc-WT (wild-type human IgG1 Fc fragment) (domain or fragment),elution pH,[3],7 pH
anti-HEL IgG1-MST-HN (full-size IgG1) (antibody),elution pH,[3],8.7 pH
recombinant human FcRn (FcRn α-chain with ß2-microglobulin) (from UniProt P55899 24-297; P61769 21-119) (receptor),Kd,Fc-MST-HN (human) [4],37 nM and 34 nM and 32 nM
same,Kd,Fc-WT (human),240 nM and 270 nM
same,Kd,[5],37 nM and 34 nM
same,Kd,anti-HEL IgG1-WT (human),600 nM
same,Kd,Fc-MST-HN (human) [6],1150 nM and 1040 nM and 830 nM
"FcRn:ß2M (recombinant extracellular domain of human FcRn in complex with beta-2-microglobulin, as used for ITC) (from UniProt P55899 24-297; P61769 21-119) (receptor)",Kd,Fc-MST (human),66.2 nM
anti-HEL IgG1-WT (full-size IgG1) (antibody),elution pH,[3],7 pH
anti-biotin IgG1-WT (from UniProt P01857),Kd,[7],200 nM
anti-HEL IgG1-WT (full-size IgG1) (from UniProt P01857),Kd,[1],381 nM
"Fc-MST-HN (IgG1 Fc fragment with M252Y, S254T, T256E, H433K, N434F) (domain or fragment)",elution pH,[3],8.7 pH
"FcRn:beta2M (FcRn residues 1-297 with beta-2-microglobulin residues 1-119), EndoH-treated, tags removed by thrombin (from UniProt P55899 24-297; P61769 21-119) (complex)",stoichiometry N,[8],2 FcRn per Fc
